Assay results taken from the RNAGym collection of RNA variant scans (doi:10.1021/acssynbio.7b00057).

B1: Pistol ribozyme (parent)
chain: GGGUCGUUGUUCCAUAAUCGCGUGGAUAUGGCACGCAAGUUUCUACCGGGCACCGUAAAUGUCCGACUGGAGCCGUUCGGGCGGCUAUAAACAGACCUCAGGCCCGAAGCGUGGCGGCACCUGCCGCCGGUGGUAAAAAAGAUCGGAAGAGCACACGUCU

Variants of: B1
Assay: aptazyme ON/OFF ratio, guanine; higher = stronger switching; co-transcriptional cleavage with and without guanine

Row | Variant | aptazyme ON/OFF ratio
1 | U7G U10G U11G C12G C13G | 1.11
2 | U7G G9U C12A | 1.97
3 | U7G G9U C12G | 1.42
4 | U7C U8C G9A U10C U11C C12G C13G | 1.24
5 | U7A U8A G9C U10G U11A C12U C13A | 1.11
6 | U7C G9C U11C C12A | 1.03
7 | G9C U10A C12G | 1.22
8 | U7A U8G G9A U10G C12U C13A | 1.43
9 | U7G U8C G9A U11G C12A C13U | 1.12
10 | U8G G9C U10A U11C | 1.03
11 | U8G U10A U11C C12G | 1.21
12 | U7G G9A C12U | 1.41
13 | U8A G9A U10G U11C C12A C13A | 1.12
14 | U7C U8G G9C U10G U11G C12U C13A | 1.06
15 | U7G U8C U10G U11A C12G C13U | 1.23
16 | U7C U8G U10A U11G C12G C13A | 1.11
17 | U7G U8A G9U U11A C13A | 1.09
18 | U7G U8G U10G U11C C13A | 1.02
19 | U7C U8A G9U U10A | 1.16
20 | U8G G9C U11A C12G C13A | 1.08
21 | U7G U8A G9A U10A U11C C12G C13A | 1.11
22 | U7C U8C G9C U10C U11G | 1.3
23 | U7G U8C G9A U10A U11C C12U | 1.11
24 | U7C U8A G9A U10C U11C C12A C13A | 1.03

Row | Variant | aptazyme ON/OFF ratio
25 | U7C U8G G9A U10G C12A C13A | 1.12
26 | U8C G9C U10A C12U C13A | 1.08
27 | U7G U8A G9A U10C C13G | 1.07
28 | U7C G9U U11A C13A | 1.2
29 | U8A G9C U10G U11G C12A C13G | 1.14
30 | U7G U8C G9A U10G U11G C12U C13A | 1.28
31 | U7C U8G U10G C12A C13G | 1.09
32 | U7A U8G G9U U11A C12A C13U | 1.25
33 | U7C U8A U11A C12A C13G | 1.08
34 | U7G G9U U10A C12G C13A | 1.09
35 | U7A U10A U11C C12G C13A | 1.08
36 | U7G U8A G9A U10G U11C C12A C13U | 1.14
37 | U7G U8G G9C U10C U11G C12U C13A | 1.25
38 | U7C U8G G9A U10C U11C C12G | 1.03
39 | U8A G9C U10C U11C C13A | 1.02
40 | U8A G9C U10C U11C C13U | 0.998
41 | U7G U8G U10G U11C C12A C13U | 1.46
42 | U7G U8A G9C U10C U11A C12A C13A | 1.01
43 | U7G U8C G9C U10G U11C | 1.15
44 | U7G G9A U11C C12A C13U | 1.26
45 | U7G U8A G9C U10C U11G | 1.05
46 | U7C U8A G9A C12G C13A | 1.17
47 | U8G G9C U10A U11A C12G | 1.16
48 | U8G U11C C13U | 1.37

Row | Variant | aptazyme ON/OFF ratio
49 | U8C G9C C13G | 1.06
50 | U7A U8A G9A U11C | 1.03
51 | U7C U8A U11G C12A | 1.08
52 | U8G U11G C13G | 1.05
53 | U8A G9A U10C U11A C12G C13A | 1.19
54 | U7G G9U U11G C12G C13G | 1.21
55 | U7G C12A C13G | 1.11
56 | U7A U8C G9C U11G C12G C13A | 1.12
57 | U8C G9A U10A U11C C12A C13G | 1.18
58 | U7C U8G G9A U11C C12G | 1.11
59 | U8A G9C U10G C12U C13A | 1.21
60 | U7C U8G G9U U10C U11G C12U C13U | 1.41
61 | U7A U8G G9A U10A C12U | 1.37
62 | U7A U10A U11C C13A | 1.02
63 | U7C U8C U10C U11G C13U | 1.34
64 | U7G U8G G9C U11C C12G C13G | 1.06
65 | U7A U8C G9A U10C U11G C12U C13G | 1.35
66 | U7C U8A G9A U11C C12G | 1.16
67 | U8C G9C U10A U11C C12U C13A | 1.19
68 | U7G U8C G9C U10G C12U C13U | 1.14
69 | U8G G9U U10G U11G C12G | 1.13
70 | U7A G9C U10A U11C C12G C13G | 1.12
71 | U7C U8A G9A U10C U11A C12U C13U | 1.11
72 | U7G U10G U11C C12A | 1.25

Row | Variant | aptazyme ON/OFF ratio
73 | U8C G9C U11C C12A C13U | 1.06
74 | U7G G9A U10C U11C C13U | 1.02
75 | U7C U11G C12U C13G | 1.06
76 | U7C U8G G9U U10C U11A C12A C13G | 1.15
77 | U7G U10C U11C C12G C13G | 1.08
78 | U8G G9A U11C C12A C13U | 1.3
79 | U8A G9U U11G C12U | 1.51
80 | U7A U8G U10A C12U C13U | 1.42
81 | U7C U8A G9C U11A C12G C13A | 1.13
82 | U7C U8G G9C U10C U11C C12G C13G | 1.08
83 | U7C G9U U10C C12A | 1.1
84 | U7G U8A G9C U10G U11G C12A C13G | 1.03
85 | U7C U8C G9A U10A U11C C12G C13G | 1.4
86 | U7C U8A U10C U11G C12G | 1.37
87 | U7C U8A G9A U11C C12U C13G | 1.09
88 | U7A U8C G9C U10G C12A C13G | 1.12
89 | U7C U8C G9C U10A U11A C12A | 1.21
90 | U7A U8A G9A U10C U11C | 1.03
91 | U8A G9C U10A C13U | 1.13
92 | U7G U8A C12A C13G | 1.14
93 | U7G U8A G9A U10G U11C C12A | 1.13
94 | U7A U8A U10A U11C C13G | 1.06
95 | U8C G9U U10A U11A C12A C13G | 1.1
96 | U8C G9C U10G U11G C12G C13A | 1.13

Row | Variant | aptazyme ON/OFF ratio
97 | U8A G9A U10C U11G C12G C13G | 1.24
98 | U7G U8C G9C U10A U11A C13U | 1.23
99 | U8G G9U U10A U11C C13U | 1.01
100 | U7A U8G G9A U10A U11A C12G C13A | 1.29
101 | U7A U8G U10C U11C C12U | 1.53
102 | G9A U10C U11C C12A C13U | 1.3
103 | U7G U8G G9C U10G U11A C12U | 1.23
104 | U7G U8C G9A U10A U11A C13A | 1.09
105 | U7A U8G G9U U10G U11G C12A | 1.38
106 | U7G U8C G9U U10G U11G C12A | 1.31
107 | U7C U8G G9C U11G C13A | 1.18
108 | U8C U11A C12G C13G | 1.16
109 | U8C G9U U10A U11A C13G | 1.07
110 | U7A U8G U10A U11G C12U | 1.12
111 | U7A U8C G9U C12A | 1.26
112 | U7C U8A G9C U10C U11A C13U | 1.13
113 | U8C G9U U10C U11C C12U C13U | 1.07
114 | U7A U10C U11C C12A C13G | 1.16
115 | U7A U8C U11C C12A C13A | 1.44
116 | U7A U8G U10C | 1.75
117 | U7G G9U U10G U11G C12A C13U | 1.19
118 | U7G U8A G9C U11G C13G | 1.04
119 | U7G U8G U11C C12U C13A | 1.38
120 | G9U U10C U11G C12G C13G | 1.24

Row | Variant | aptazyme ON/OFF ratio
121 | U8C G9U U10A U11G | 1.74
122 | U7A G9A U10C U11C C13A | 0.975
123 | U7G U8A G9C U10G C12U | 1.03
124 | U7G U8C G9U U10C U11A C13A | 1.49
125 | U8C G9A U11G C12G C13G | 1.19
126 | G9U U11G C12G | 2.82
127 | U7G U8A G9C U10C U11G C13G | 1.03
128 | U8A G9A U10G U11A C12U C13A | 1.12
129 | U7G U8A G9C U10G U11G C12U | 1.32
130 | U7A U8G U10A U11A C12G C13G | 1.26
131 | U8G G9U U11C C12U C13A | 1.06
132 | U7C U8C G9C U10C U11C C12A C13G | 1.09
133 | U8A U11C C12G C13U | 1.12
134 | U7G U10A U11C C13G | 1.02
135 | U8C G9C U10C U11G C12U C13U | 1.06
136 | U7C U10A U11G C12A | 1.29
137 | U7C U8A G9U U10G C12A C13U | 1.17
138 | U7G G9A U10C U11G C13G | 1.17
139 | U7A U8G G9C U10G C12G C13A | 1.3
140 | U8G G9A U10G U11G C12U | 1.12
141 | U7A U8C G9C U10C U11C C12U C13U | 0.988
142 | U7A U8A G9A U10C U11A C12G C13A | 1.08
143 | U8G U10C U11G C12A C13G | 1.13
144 | U7G U8C G9U U10C C12G | 1.87

Row | Variant | aptazyme ON/OFF ratio
145 | U7A U8A G9A U10G U11A C12U C13A | 1.13
146 | U7C U8G U10C U11C C12G C13A | 1.14
147 | U7G U8G G9U U11C C12U C13U | 1.33
148 | U7A G9C U10G U11G C12G C13G | 1.13
149 | U8G U10C U11C C12G C13G | 1.09
150 | U7G G9U U11G | 2.13
151 | U7A G9A U10A C12U C13A | 1.1
152 | U7A U8G U11C C12A C13A | 1.17
153 | U7C U8C G9C U10A U11G C12U | 1.05
154 | U7G U8C G9U U10C U11C C12U C13A | 1.55
155 | U7C G9A U10A U11G C12G | 1.15
156 | U7G U8C G9U U11A C12U | 2.56
157 | U7C U8A G9U U10C U11A C12A | 1.13
158 | U7C G9U U10C U11G C13A | 1.24
159 | U7C G9C U10C C12A C13A | 1.06
160 | U7G U8A G9A U10A U11G C12U | 1.65
161 | G9C U11G | 2.2
162 | U7C U8A G9C U10A U11A C12G C13U | 1.16
163 | U7A U8C G9C U10C U11G C12A C13A | 1.18
164 | U7C U8G G9U U10A U11C C12U | 1.04
165 | U7A U8A G9A U10C C12A C13U | 1
166 | U8G G9C U10G U11A C12G C13A | 1.14
167 | U7A U8G G9C U10G U11A C13U | 1.15
